{"source": "paper PMC12753105", "key": {"[1]": {"biological_target": "SARS-CoV-2 N-protein N:G215C* (oxidized), full length (SARS-CoV-2) (UniProt P0DTC9)", "experiment": "mass photometry"}, "[2]": {"biological_target": "SARS-CoV-2 N-protein N:G215C (reduced), full length (SARS-CoV-2) (UniProt P0DTC9)", "experiment": "AUC"}, "[3]": {"biological_target": "SARS-CoV-2 N-protein N:G215C (reduced), full length (SARS-CoV-2) (UniProt P0DTC9)", "experiment": "mass photometry"}, "[4]": {"biological_target": "SARS-CoV-2 N-protein N:R203K/G204R, full length (SARS-CoV-2) (UniProt P0DTC9)", "experiment": "mass photometry"}, "[5]": {"biological_target": "SARS-CoV-2 N-protein Nο (N:P13L/Δ31–33/R203K/G204R), full length (SARS-CoV-2) (UniProt P0DTC9)", "experiment": "mass photometry"}}}
{"substance": "SARS-CoV-2 N-protein N:G215C* (oxidized), full length (from UniProt P0DTC9 1-419) (natural protein)", "values": [{"measurement": "best-fit effective RNP life-time (with SL7 RNA)", "setting": "[1]", "value": 41.8, "unit": "s"}]}
{"substance": "SARS-CoV-2 N-protein N:G215C (reduced), full length (from UniProt P0DTC9 1-419) (natural protein)", "values": [{"measurement": "Kd", "setting": "[2]", "value": 1000, "unit": "nM"}, {"measurement": "best-fit effective RNP life-time (with SL7 RNA)", "setting": "[3]", "value": 231, "unit": "s"}]}
{"substance": "SARS-CoV-2 N-protein N:R203K/G204R, full length (from UniProt P0DTC9 1-419) (natural protein)", "values": [{"measurement": "best-fit effective RNP life-time (with SL7 RNA)", "setting": "[4]", "value": 54.6, "unit": "s"}]}
{"substance": "SARS-CoV-2 N-protein Nο (N:P13L/Δ31–33/R203K/G204R), full length (from UniProt P0DTC9 1-419) (natural protein)", "values": [{"measurement": "best-fit effective RNP life-time (with SL7 RNA)", "setting": "[5]", "value": 58.5, "unit": "s"}]}
